Data as given in US20010010923A1, “MODIFIED CARBOXYPEPTIDASE” (priority 1997, published 2001).
Substitutions are numbered along the chain they refer to. In names and notes the source's numbering stands.

Experiments:
Format in all cases: biochemical
[1] = Transamidation of Bz-G-A-R-A-R-A-OH, Table 6; details: [S] = 2 mM; H-Leu-NH2 375 mM; pH 7.5; [E] 0.1 mg/mL
[2] = Transpeptidation of Bz-G-A-R-A-R-X-OH at pH 6.5 at 50% substrate consumption, Table 5; design: key to fa: fa = aminolysis product / sum of all products formed; details: for Pmax (peak product yield) / fa: 750 mM H-Leu-NH2; for fa / t: 50% substrate consumption; for t: 750 mM H-Leu-NH2, 2 mM substrate, [E] 0.1 mg/mL
Procedure: Transamidation reactions were carried out generally as described in PCT Application WO 95/20039. In general, the method included dissolving the nucleophile (H-Leu-NH2, unless otherwise indicated) in 50 mM HEPES, […], 5 μl of peptide substrate (8 mM Bz-G-A-R-A-R-A-OH, unless otherwise indicated, in methanol) was added to 190 μl nucleophile solution followed by 5 μl enzyme, resulting in a substrate concentration of 0.2 mM.
(§1) During the reaction, 20 μl aliquots were removed from the reaction mixture and added to 50 μl 1% trifluoroacetic acid to quench the reaction. The reactant composition was determined by HPLC using a Waters HPLC equipped with a C-18 Waters Novapac 4μ reverse phase column and various gradients of acetonitrile in 0.1% trifluoroacetic acid. The separation was monitored at 254 nm allowing the direct quantification of the products from the integrated peak areas. The composition of the reaction mixture was determined at least twvice during the reaction, the first when 20-50% (preferably 35%) of the substrate had been consumed in the reaction and the second time when 50-90% (preferably 80%) of the peptide substrate had been consumed.
The fraction of aminolysis (fa) was expressed as the ratio between the formed aminolysis product and the sum of all products formed. Unconsumed substrate was disregarded in the calculations. […]

[3] = Transpeptidation of Bz-G-A-R-A-R-X-OH at pH 7.5 at 50% substrate consumption, Table 4; design: key to fa: fraction: aminolysis product / sum of all products formed; details: for Pmax (peak product yield) / fa: 375 mM H-Leu-NH2; for fa / t: 50% substrate consumption; for t: 375 mM H-Leu-NH2, 2 mM substrate, [E] 0.1 mg/mL
Procedure: (§2) Transamidation reactions were carried out generally as described in PCT Application WO 95/20039. In general, the method included dissolving the nucleophile (H-Leu-NH2, unless otherwise indicated) in 50 mM HEPES, 5 mM EDTA and adjusting the pH to 7.5, 5 μl of peptide substrate (8 mM Bz-G-A-R-A-R-A-OH, unless otherwise indicated, in methanol) was added to 190 μl nucleophile solution followed by 5 μl enzyme, resulting in a substrate concentration of 0.2 mM.
as §1
(§3) The fraction of aminolysis (fa) was expressed as the ratio between the formed aminolysis product and the sum of all products formed. Unconsumed substrate was disregarded in the calculations.
Site specific mutagenesis was performed as described for Example 1 to generate the specific mutants described below. Transamidation reactions were performed as described for Examples 1.

[4] = Transamidation of FA-Arg-Ala-OH, Table 6; details: H-Leu-NH2 375 mM, pH 7.5, [E] 0.1 mg/mL
[5] = Transpeptidation of Bz-G-A-R-A-R-A-OH (arginine at P1) with H-Leu-NH2, Table 1; details: 2mM substrate, pH 7.5, [E] 0.1 mg/mL
Procedure: The mutant carboxypeptidase enzvmes used in these studies were produced by site-directed mutagenesis, essentially following the procedures described in published PCT Patent Application No. WO 95/20039. In general, oligonucleotides synthesized to encode the amino acid substitution were used to produce the mutant enzymes.
as §2, with “resulting in a substrate concentration of 0.2 mM.” left out
as §1
The reaction products were collected and identified by amino acid analysis after acid hydrolysis using a Pharmacia Alpha Plus analyzer. Further identification was obtained by co-chromatography of authentic standard compounds.
as §3

[6] = Transamidation of Bz-G-A-R-A-R-A-OH, Table 6; details: H-Leu-NH2 375 mM, pH 7.5, [E] 0.1 mg/mL
Procedure: as §2, with “resulting in a substrate concentration of 0.2 mM.” left out
as §1, §3
Site specific mutagenesis was performed as described for Example 1 to generate the specific mutants described below. Transamidation reactions were performed as described in the previous examples.

B1: L178S + M398L: carboxypeptidase Y mutant L178S + M398L (S1 and S1' subsites) (protein, UniProt P00729 112-532, looked up, variant L178S M398L)
Carboxypeptidase Y: KIKDPKILGIDPNVTQYTGYLDVEDEDKHFFFWTFESRNDPAKDPVILWLNGGPGCSSLTGLFFELGPSSIGPDLKPIGNPYSWNSNATVIFLDQPVNVGFSYSGSSGVSNTVAAGKDVYNFLELFFDQFPEYVNKGQDFHIAGESYAGHYIPVFASEILSHKDRNFNLTSVLIGNGSTDPLTQYNYYEPMACGEGGEPSVLPSEECSAMEDSLERCLGLIESCYDSQSVWSCVPATIYCNNAQLAPYQRTGRNVYDIRKDCEGGNLCYPTLQDIDDYLNQDYVKEAVGAEVDHYESCNFDINRNFLFAGDWMKPYHTAVTDLLNQDLPILVYAGDKDFICNWLGNKAWTDVLPWKYDEEFASQKVRNWTASITDEVAGEVKSYKHFTYLRVFNGGHLVPFDVPENALSMVNEWIHGGFSL
fa [1]: 0.91
Pmax (peak product yield) ([2]; leaving group A): 0.48
fa ([2]; leaving group A): 0.92
t ([2]; leaving group A): 53 min
Pmax (peak product yield) ([2]; leaving group L): 0.54
fa ([2]; leaving group L): 0.54
t ([2]; leaving group L): 19 min
Pmax (peak product yield) ([3]; leaving group A): >0.48
fa ([3]; leaving group A): 0.77
t ([3]; leaving group A): 41 min
fa ([3]; leaving group I): 0.54
t ([3]; leaving group I): 33 min
Pmax (peak product yield) ([3]; leaving group L): >0.39
fa ([3]; leaving group L): 0.39
t ([3]; leaving group L): 1 min
fa ([3]; leaving group M): 0.17
t ([3]; leaving group M): 17 min
fa ([3]; leaving group V): 0.45
t ([3]; leaving group V): 30 min
Pmax ([4]; [S] = 2 mM): 0.90
fa ([4]; [S] = 2 mM): .99

B2: L245E: carboxypeptidase Y S1 mutant, substitution L245E (protein, UniProt P00729 112-532, looked up, variant L245E)
Carboxypeptidase Y: B1 Carboxypeptidase Y with S178L, L245E, L398M
fa (fraction of aminolysis) ([5]; [N] 50 mM H-Leu-NH2): 0.07
fa (fraction of aminolysis) ([5]; [N] 375 mM H-Leu-NH2): 0.18
fa [1]: 0.20
Pmax ([6]; [S] = 2 mM): 0.09
Pmax ([4]; [S] = 2 mM): 0.73
fa ([4]; [S] = 2 mM): 0.83

B3: N241D: carboxypeptidase Y mutant, substitution N241D (protein, UniProt P00729 112-532, looked up, variant N241D)
Carboxypeptidase Y: B1 Carboxypeptidase Y with S178L, N241D, L398M
fa [1]: 0.15
Pmax ([6]; [S] = 2 mM): 0.09
Pmax ([4]; [S] = 2 mM): 0.56
fa ([4]; [S] = 2 mM): 0.85

B4: N241D + W312F: carboxypeptidase Y mutant N241D + W312F (protein, UniProt P00729 112-532, looked up, variant N241D W312F)
Carboxypeptidase Y: B1 Carboxypeptidase Y with S178L, N241D, W312F, L398M
fa [1]: 0.24
Pmax ([6]; [S] = 2 mM): 0.17
Pmax ([4]; [S] = 2 mM): 0.58
fa ([4]; [S] = 2 mM): 0.70

B5: N241D + W312L: carboxypeptidase Y mutant N241D + W312L (protein, UniProt P00729 112-532, looked up, variant N241D W312L)
Carboxypeptidase Y: B1 Carboxypeptidase Y with S178L, N241D, W312L, L398M
fa [1]: 0.05
Pmax ([6]; [S] = 2 mM): 0.05
Pmax ([4]; [S] = 2 mM): 0.37
fa ([4]; [S] = 2 mM): 0.50

B6: N241D + W312A: carboxypeptidase Y mutant N241D + W312A (protein, UniProt P00729 112-532, looked up, variant N241D W312A)
Carboxypeptidase Y: B1 Carboxypeptidase Y with S178L, N241D, W312A, L398M
fa [1]: 0.28
Pmax ([6]; [S] = 2 mM): 0.20
Pmax ([4]; [S] = 2 mM): 0.72
fa ([4]; [S] = 2 mM): 0.80

B7: N241E: carboxypeptidase Y S1 mutant, substitution N241E (protein, UniProt P00729 112-532, looked up, variant N241E)
Carboxypeptidase Y: B1 Carboxypeptidase Y with S178L, N241E, L398M
fa (fraction of aminolysis) ([5]; [N] 50 mM H-Leu-NH2): 0.27
fa [1]: 0.47
Pmax ([6]; [S] = 0.2 mM): 0.25
fa ([6]; [S] = 0.2 mM): 0.43
Pmax ([6]; [S] = 2 mM): 0.25
Pmax ([4]; [S] = 0.2 mM): 0.49
fa ([4]; [S] = 0.2 mM): 0.70
fa ([4]; [S] = 2 mM): 0.92

B8: N241D + W312N: carboxypeptidase Y mutant N241D + W312N (protein, UniProt P00729 112-532, looked up, variant N241D W312N)
Carboxypeptidase Y: B1 Carboxypeptidase Y with S178L, N241D, W312N, L398M
fa [1]: 0.17
Pmax ([6]; [S] = 2 mM): 0.13
Pmax ([4]; [S] = 2 mM): 0.58
fa ([4]; [S] = 2 mM): 0.74
